Measured values as given in PMC10266124 (mAbs, 2023).
Changes are numbered by the printed parent chain.

B1: mAb16 (C121) (antibody, V domains shown)
VH: not shown
VL: QSALTQPASVSGSPGQSITISCTGTSSDVGSYNLVSWYQQHPGKAPKLMIYEGSKRPSGVSNRFSGSKSGNTASLTISGLQAEDEADYYCCSYAGSSTLVFGGGTKLTVL
B2: mAb19 (CV07-270) (antibody, V domains shown)
VH: QVQLVESGGGLVKPGGSLRLSCAASGFTFSDYYMTWIRQAPGKGLEWVSYISSSGSTIYYADSVKGRFTISRDNAKNSLYLQMNSLRAEDTAVYYCARARGSSGWYRIGTRWGNWFDPWGQGTLVTVSS
VL: B1 VL with S31G, L34Y, G53V, K55N, C91S, A94T, G95S, T98N, L99V, K106M
B3: mAb15 (C119) (antibody, V domains shown)
VH: QVQLVQSGAEVKKPGASVKVSCKASGYTFTSYYMHWVRQAPGQGLEWMGIINPSGGSTSYAQKLQGRVTMTRDTSTSTVYMELSSLRSEDTAVYYCARANHETTMDTYYYYYYMDVWGKGTTVTVSS
VL: QSALTQPASVSGSPGQSITISCTGTSSDVGGYKYVSWYQRHPGKAPKLMIYDVSNRPSGVSNRFSGSKSGNTASLTISGLQAEDEADYYCSSYTSSSTSVVFGGGTQLTVL
B4: mAb25 (S2M11) (antibody, V domains shown)
VH: EVQLVQSGAEVKKPGASVKVSCKASGYTFTGYYMHWVRQAPGQGLEWMGWINPISSGTSYAQTFQGRVTMTSDTSITTAYMELSRLRSDDTAVYYCARAAPFYDFWSGYSYFDYWGQGTLVTVSS
VL: not shown
B5: mAb27 (H014) (antibody, V domains shown)
VH: EVQLVQSGAEVKKPGATVKISCKVSGYSFSNYYIHWVKQAPGKSLEWIGYIDPFNGGTSDNLKFKGAATLTADTSTDTAYMELSSLRSEDTAVYYCARSEYDPYYVMDYWGQGTTVTVSS
VL: IVLTQSPFQSVSPKEKVTITCRASQSISSNLHWYQQKPDQSPKLLIKYASQSISGIPSRFSGSGSGTDFTLTINSLEAEDFGIYFCQQTNFWPYIFGQGTKLEIL
B6: mAb08 (B38) (antibody, V domains shown)
VH: EVQLVESGGGLVQPGGSLRLSCAASGFIVSSNYMSWVRQAPGKGLEWVSVIYSGGSTYYADSVKGRFTISRHNSKNTLYLQMNSLRAEDTAVYYCAREAYGMDVWGQGTTVTVSS
VL: DIVMTQSPSFLSASVGDRVTITCRASQGISSYLAWYQQKPGKAPKLLIYAASTLQSGVPSRFSGSGSGTEFTLTISSLQPEDFATYYCQQLNSYPPYTFGQGTKLEIK
B7: mAb24 (S2E12) (antibody, V domains shown)
VH: not shown
VL: DIVLTQTPGTLSLSPGERATLSCRASQSVSSSYLAWYQQKPGQAPRLLIYGASSRATGIPDRFSGSGSGTDFTLTISRLEPEDFAVYYCQQYVGLTGWTFGQGTKVEIK
B8: mAb26 (4A8) (antibody, V domains shown)
VH: EVQLVESGAEVKKPGASVKVSCKVSGYTLTELSMHWVRQAPGKGLEWMGGFDPEDGETMYAQKFQGRVTMTEDTSTDTAYMELSSLRSEDTAVYYCATSTAVAGTPDLFDYYYGMDVWGQGTTVTVSS
VL: EIVMTQSPLSSPVTLGQPASISCRSSQSLVHSDGNTYLSWLQQRPGQPPRLLIYKISNRFSGVPDRFSGSGAGTDFTLKISRVEAEDVGVYYCTQATQFPYTFGQGTKVDIK
B9: mAb21 (S2A4) (antibody, V domains shown)
VH: EVQLVESGGGLVQPGGSLRLSCAASGFTFSSYWMNWVRQAPGKGLEWVANIKQDGSEKYYVDSVKGRFTISRDNAKNSLFLQMNSLRAEDTAVYYCARVWWLRGSFDYWGQGTLVTVSS
VL: NFMLTQPHSVSESPGKTVTISCTGSSGSIASNYVQWYQQRPGSAPTTVIYEDNQRPSGVPDRFSGSIDSSSNSASLTISGLKTEDEADYYCQSYDSSNHVVFGGGTKLTVL
B10: mAb10 (52) (antibody, V domains shown)
VH: QVQLVQSGAEVKKPGSSVKVSCKASGYTFTSYGISWVRQAPGQGLEWMGGIIPMFGTTNYAQKFQGRVTITADKSTSTAYMELSSLRSEDTAVYYCARDRGDTIDYWGQGTLVTVSS
VL: DIQMTQSPSSLSASVGDRVTITCRASQGISNNLNWYQQKPGKAPKLLIYAASSLESGVPSRFSGSGSGTDFTLTISSLQPEDFATYYCQQGNGFPLTFGPGTKVDIK
B11: mAb02 (casirivimab) (antibody, V domains shown)
VH: QVQLVESGGGLVKPGGSLRLSCAASGFTFSDYYMSWIRQAPGKGLEWVSYITYSGSTIYYADSVKGRFTISRDNAKSSLYLQMNSLRAEDTAVYYCARDRGTTMVPFDYWGQGTLVTVSS
VL: DIQMTQSPSSLSASVGDRVTITCQASQDITNYLNWYQQKPGKAPKLLIYAASNLETGVPSRFSGSGSGTDFTFTISGLQPEDIATYYCQQYDNLPLTFGGGTKVEIK
B12: mAb23 (COVA1-16) (antibody, V domains shown)
VH: QVQLVQSGAEVKKPGASVKVSCKASGYTFTSYYMHWVRQAPGQGLEWMGIINSSGGSTSYAQKFQGRVTMTRDTSTSTVYMELSSLRSEDTAVYYCARPPRNYYDRSGYYQRAEYFQHWGQGTLVTVSS
VL: B11 VL with M4L, T30S, K39R, A50D, G77S, L94P, V104L
B13: mAb11 (298) (antibody, V domains shown)
VH: QVQLVQSGAEVKKPGASVKVSCKASGGTFSTYGISWVRQAPGQGLEWMGWISPNSGGTDLAQKFQGRVTMTRDTSTSTVYMELSSLRSEDTAVYYCASDPRDDIAGGYWGQGTLVTVSS
VL: not shown
B14: mAb03 (imdevimab) (antibody, V domains shown)
VH: QVQLVESGGGVVQPGRSLRLSCAASGFTFSNYAMYWVRQAPGKGLEWVAVISYDGSNKYYADSVKGRFTISRDNSKNTLYLQMNSLRTEDTAVYYCASGSDYGDYLLVYWGQGTLVTVSS
VL: QSALTQPASVSGSPGQSITISCTGTSSDVGGYNYVSWYQQHPGKAPKLMIYDVSKRPSGVSNRFSGSKSGNTASLTISGLQSEDEADYYCNSLTSISTWVFGGGTKLTVL
B15: mAb22 (S304) (antibody, V domains shown)
VH: VQLVESGGGLVQPGGSLRLSCAASGFTFSSYDMHWVRQTTGKGLEWVSTIGTAGDTYYPDSVKGRFTISREDAKNSLYLQMNSLRAGDTAVYYCARGDSSGYYYYFDYWGQGTLLTVSS
VL: DIEMTQSPSSLSAAVGDRVTITCRASQSIGSYLNWYQQKPGKAPKLLIYAASSLQSGVPSRFSGSGSGTDFTLTISSLQPEDFAIYYCQQSYVSPTYTFGPGTKVDIK
B16: mAb01 (bamlanivimab) (antibody, V domains shown)
VH: QVQLVQSGAEVKKPGSSVKVSCKASGGTFSNYAISWVRQAPGQGLEWMGRIIPILGIANYAQKFQGRVTITADKSTSTAYMELSSLRSEDTAVYYCARGYYEARHYYYYYAMDVWGQGTAVTVSS
VL: not shown
B17: mAb18 (CV07-250) (antibody, V domains shown)
VH: QVQLVQSEAEVKEPGASVEVSCKASGYNFTNFAISWVRQAPGQGLEWMGWISGYNGDTNSAQKFLGRVTMTTDTSTTTAYMELRSLRSDDTAVYYCAGSDNYGFPYNGMDVWGQGTTVTVFN
VL: QSALTQPPSASGSPGQSVTISCTGTSSDLGAYHFVTWYQHYPGKAPKVMIYGVRKRPSGVPDRFSGSKSGNTASLTVSGLQDEDEADYYCSSYAGNNDFVFGGGTKLTVL
B18: mAb14 (C002) (antibody, V domains shown)
VH: EVQLVESGGGVVQPGRSLRLSCAASGFTFSIYGMHWVRQAPGKGLEWVAVISYDGSNKYYADSVKGRFTISRDNSKNTLYLQMNSLRAEDTAVYYCAKEGRPSDIVVVVAFDYWGQGTLVTVSS
VL: not shown
B19: mAb09 (etesevimab) (antibody, V domains shown)
VH: EVQLVESGGGLVQPGGSLRLSCAASGFTVSSNYMSWVRQAPGKGLEWVSVIYSGGSTFYADSVKGRFTISRDNSMNTLFLQMNSLRAEDTAVYYCARVLPMYGDYLDYWGQGTLVTVSS
VL: not shown
B20: mAb29 (regdanvimab) (antibody, V domains shown)
VH: QITLKESGPTLVKPTQTLTLTCSFSGFSLSTSGVGVGWIRQPPGKALEWLALIDWDDNKYHTTSLKTRLTISKDTSKNQVVLTMTNMDPVDTATYYCARIPGFLRYRNRYYYYGMDVWGQGTTVTVSS
VL: ELVLTQPPSVSAAPGQKVTISCSGSSSNIGNNYVSWYQQLPGTAPKLLIYDNNKRPSGIPDRFSGSKSGTSATLGITGLQTGDEADYYCGTWDSSLSAGVFGGGTELTVL

Molecular target: Biotinylated SARS-CoV-2 spike S1 protein (SARS-CoV-2, Wuhan, UniProt P0DTC2, biotin (biotinylated))
Experiment: SPR

Row | Binder | binding result
1 | B1 | binds
2 | B2 | binds
3 | B3 | binds
4 | B4 | binds
5 | B5 | binds
6 | B6 | binds
7 | B7 | binds
8 | B8 | binds
9 | B9 | binds
10 | B10 | binds
11 | B11 | binds
12 | B12 | binds
13 | B13 | binds
14 | B14 | binds
15 | B15 | binds
16 | B16 | binds
17 | B17 | binds
18 | B18 | binds
19 | B19 | binds
20 | B20 | binds
